Results on 1 protein are retold here after publication PMC3293039, “Highly stable meso-diaminopimelate dehydrogenase from an Ureibacillus thermosphaericus strain A1 isolated from a Japanese compost: purification, characterization and sequencing” (AMB Express, 2011).

Substrate in series [1]: N[C@H](CCC[C@H](N)C(=O)O)C(=O)O
The experiment in a line: purified protein. The class given is biochemical, Ureibacillus thermosphaericus. Conditions: oxidative deamination, NADP as co-substrate, carbonate-KOH pH 10.5, 50 °C.

Substrate in series [2]: NC(=O)c1ccc[n+]([C@@H]2O[C@H](COP(=O)(O)OP(=O)(O)OC[C@H]3O[C@@H](n4cnc5c(N)ncnc54)[C@H](OP(=O)(O)O)[C@@H]3O)[C@@H](O)[C@H]2O)c1
Kind of series: purified protein. In kind it is biochemical, Ureibacillus thermosphaericus. The following applies: oxidative deamination, meso-DAP as co-substrate, carbonate-KOH pH 10.5, 50 °C, varied: cofactor.

B1: meso-DAPDH (meso-diaminopimelate dehydrogenase) (Ureibacillus thermosphaericus) (protein)
chain: SKIRIGIVGYGNLGRGVEAAIQQNPDMELVAVFTRRDPKTVAVKSNVKVLHVDDAQSYKDEIDVMILCGGSATDLPEQGPYFAQYFNTIDSFDTHARIPDYFDAVNAAAEQSGKVAIISVGWDPGLFSLNRLLGEVVLPVGNTYTFWGKGVSQGHSDAIRRIQGVKNAVQYTIPIDEAVNRVRSGENPELSTREKHARECFVVLEEGADPAKVEHEIKTMPNYFDEYDTTVHFISEEELKQNHSGMPHGGFVIRSGKSDEGHKQIIEFSLNLESNPMFTSSALVAYARAAYRLSQNGDKGAKTVFDIPFGLLSPKSPEDLRKELL
notes: native, purified from U. thermosphaericus A1 cells; gene encodes 326 residues; homodimer about 80 kDa, subunit about 40 kDa; N-terminus SKIRIGIVGY (initiator Met removed)
In the case of B1, the Km was found to be 1600 µM in “purified protein [1]” and 130 µM in “purified protein [2]”.
